{"source": "paper PMC3400628", "about": "(PLoS ONE, 2012)", "binders": {"B1": {"name": "myc-TRIM27 WT (natural protein, human, UniProt P14373 1-513, looked up)", "chain": "MASGSVAECLQQETTCPVCLQYFAEPMMLDCGHNICCACLARCWGTAETNVSCPQCRETFPQRHMRPNRHLANVTQLVKQLRTERPSGPGGEMGVCEKHREPLKLYCEEDQMPICVVCDRSREHRGHSVLPLEEAVEGFKEQIQNQLDHLKRVKDLKKRRRAQGEQARAELLSLTQMEREKIVWEFEQLYHSLKEHEYRLLARLEELDLAIYNSINGAITQFSCNISHLSSLIAQLEEKQQQPTRELLQDIGDTLSRAERIRIPEPWITPPDLQEKIHIFAQKCLFLTESLKQFTEKMQSDMEKIQELREAQLYSVDVTLDPDTAYPSLILSDNLRQVRYSYLQQDLPDNPERFNLFPCVLGSPCFIAGRHYWEVEVGDKAKWTIGVCEDSVCRKGGVTSAPQNGFWAVSLWYGKEYWALTSPMTALPLRTPLQRVGIFLDYDAGEVSFYNVTERCHTFTFSHATFCGPVRPYFSLSYSGGKSAAPLIICPMSGIDGFSGHVGNHGHSMETSP", "notes": "TRIM27, human, full length (aa 1-513 by the deletion constructs); cDNA from ImaGenes; also called RFP; source: HEK293T, transfected, in lysate; not shown: 3xmyc, N-terminal, kept"}}, "target": "T1, Flag-NOD2 (human, UniProt Q9HC29 1-1040)", "T1 construct": "NOD2, human; The deletion constructs count up to aa 1040, the length of whole NOD2; also called NOD2 WT; Flag-NOD2 WT; source: HEK293T, transfected, in lysate; not shown: Flag, N-terminal, kept", "settings": "partners not purified", "data": [{"binder": "B1", "values": [{"measurement": "fold change of TRIM27 co-precipitated with NOD2 at 3 h after 10 µM MDP against untreated controls", "result": "> 2", "unit": "fold"}]}]}
